Results: patent US20210388102A1 (IMMUNOGEN, published 2021)
Blank lines part the entries; values can stand above or below the binder they belong to.

Key:
[1] = target: T1, human ADAM9 (huADAM9) on cells (human, UniProt Q13443 206-819); assay: cell-based or functional assay
T1 sequence: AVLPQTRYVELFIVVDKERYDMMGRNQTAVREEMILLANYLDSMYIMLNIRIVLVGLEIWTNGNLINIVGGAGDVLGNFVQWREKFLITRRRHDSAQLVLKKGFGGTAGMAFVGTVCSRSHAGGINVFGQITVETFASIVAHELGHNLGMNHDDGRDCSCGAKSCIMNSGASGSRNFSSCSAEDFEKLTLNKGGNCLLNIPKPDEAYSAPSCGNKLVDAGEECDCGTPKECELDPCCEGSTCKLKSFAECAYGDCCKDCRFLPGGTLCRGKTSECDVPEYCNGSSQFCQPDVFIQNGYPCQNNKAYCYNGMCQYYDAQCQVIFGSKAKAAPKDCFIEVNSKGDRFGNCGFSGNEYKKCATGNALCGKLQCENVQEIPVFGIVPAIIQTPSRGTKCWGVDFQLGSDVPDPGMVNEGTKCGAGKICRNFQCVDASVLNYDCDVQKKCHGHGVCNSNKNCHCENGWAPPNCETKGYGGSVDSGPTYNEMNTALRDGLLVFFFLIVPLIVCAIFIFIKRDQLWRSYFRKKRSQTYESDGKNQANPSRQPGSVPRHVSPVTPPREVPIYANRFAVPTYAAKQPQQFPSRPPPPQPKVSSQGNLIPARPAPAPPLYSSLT

[2] = target: T2, cynomolgus monkey ADAM9 (cynoADAM9) on cells (cynomolgus monkey, UniProt Q13443 206-819 (human entry)); assay: FACS, 300-19 cells expressing cynomolgus ADAM9
T2 construct: also called Cho-K/cynoADAM9 clone 2; Cho-K/cynoADAM9 clone #16
T2 chain: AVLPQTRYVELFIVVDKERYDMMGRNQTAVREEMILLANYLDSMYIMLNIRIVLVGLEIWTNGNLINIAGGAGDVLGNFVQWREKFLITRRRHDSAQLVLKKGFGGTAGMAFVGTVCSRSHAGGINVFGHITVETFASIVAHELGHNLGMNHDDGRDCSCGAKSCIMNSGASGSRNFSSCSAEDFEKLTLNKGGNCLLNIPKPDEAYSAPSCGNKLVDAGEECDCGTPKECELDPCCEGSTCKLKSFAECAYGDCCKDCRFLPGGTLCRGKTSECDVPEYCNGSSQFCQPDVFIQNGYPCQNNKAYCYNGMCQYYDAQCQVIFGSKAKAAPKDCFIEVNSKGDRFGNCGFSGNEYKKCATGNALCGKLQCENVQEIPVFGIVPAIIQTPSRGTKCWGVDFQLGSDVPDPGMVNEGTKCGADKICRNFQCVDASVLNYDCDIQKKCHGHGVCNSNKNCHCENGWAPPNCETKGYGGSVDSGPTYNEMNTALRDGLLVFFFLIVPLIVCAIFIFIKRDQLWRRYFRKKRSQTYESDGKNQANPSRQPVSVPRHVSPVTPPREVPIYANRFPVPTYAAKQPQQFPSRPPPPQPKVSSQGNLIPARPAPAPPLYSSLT

[3] = target: T2, cynomolgus monkey ADAM9 (cynoADAM9) on …; assay: FACS, EC50 on 300-19 cynoADAM9 cells over EC50 on 300-19 huADAM9 cells
Protocol: (§1) To evaluate the consequence of conjugation on antigen binding, the relative binding affinity of each anti-ADAM9 immunoconjugate and its respective unconjugated antibody to ADAM9 was determined by FACS analysis on 300-19 cells ectopically-expressing either human ADAM9 or cynomolgus ADAM9. Briefly, the ADAM9-expressing 300-19 cells were incubated with dilution series of anti-ADAM9 antibodies or immunoconjugates for 30 min @ 4° C. in FACS buffer (PBS, 0.1% BSA, 0.01% NaN₃), Samples were then washed and incubated with fluorescently-labeled secondary antibody for 30 minutes at 4° C. The normalized mean of fluorescence intensity at each concentration was plotted and the EC50 of binding was calculated using a nonlinear regression analysis (GraphPad Prims 4.0).

[4] = target: T1, human ADAM9 (huADAM9) on cells; assay: FACS, 300-19 cells expressing human ADAM9
Protocol: as §1

[5] = target: T3, His-tagged soluble human ADAM9 (shADAM9-His) (human, UniProt Q13443 206-697); assay: SPR (BIACORE), antibody captured, huADAM9-His in flow
T3 construct: Contains an extracellular portion of human ADAM9; also called huADAM9-His; His peptide-tagged soluble huADAM9
T3 sequence: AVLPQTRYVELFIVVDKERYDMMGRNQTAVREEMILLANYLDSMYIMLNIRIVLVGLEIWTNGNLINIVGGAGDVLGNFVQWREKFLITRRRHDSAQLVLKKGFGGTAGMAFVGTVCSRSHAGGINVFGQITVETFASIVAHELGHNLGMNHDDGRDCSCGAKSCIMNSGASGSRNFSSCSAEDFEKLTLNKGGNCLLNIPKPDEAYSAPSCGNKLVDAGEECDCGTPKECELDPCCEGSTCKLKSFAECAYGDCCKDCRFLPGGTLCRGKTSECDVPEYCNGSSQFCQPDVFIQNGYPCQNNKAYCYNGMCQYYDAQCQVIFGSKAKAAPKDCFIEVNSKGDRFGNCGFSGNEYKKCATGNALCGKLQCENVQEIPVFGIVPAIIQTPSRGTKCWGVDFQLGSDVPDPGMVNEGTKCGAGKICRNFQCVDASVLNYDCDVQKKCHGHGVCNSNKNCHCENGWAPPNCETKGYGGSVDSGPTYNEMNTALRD
Protocol: (§2) The kinetics of binding were determined via BIACORE® analysis binding (normalized 1:1 Langmuir binding model).

[6] = target: T3, His-tagged soluble human ADAM9 …; assay: SPR (BIACORE), antibody captured on anti-human Fc, shADAM9-His 6.25-100 nM, 1:1 Langmuir
Protocol: as §2

[7] = target: T3, His-tagged soluble human ADAM9 …; assay: ELISA: His-tagged soluble huADAM9 (0.5 µg/mL) captured by plate-coated anti-His antibody; serial dilutions of antibody about 0.2-500 ng/mL; abs @450nm
Description: The binding of each Fc variant to huADAM9-His and cynoADAM9-His was examined by ELISA assay.

- Fold-specificity (IC50 control ADC/IC50 anti-ADAM9 ADC), A498 [1]: 30 fold
- Fold-specificity (IC50 control ADC/IC50 anti-ADAM9 ADC), DLD-1 [1]: 63 fold
- Fold-specificity (IC50 control ADC/IC50 anti-ADAM9 ADC), DU145 [1]: 32 fold
- Fold-specificity (IC50 control ADC/IC50 anti-ADAM9 ADC), HPAF2 [1]: 13 fold
- Fold-specificity (IC50 control ADC/IC50 anti-ADAM9 ADC), HS578T [1]: 20 fold
- Fold-specificity (IC50 control ADC/IC50 anti-ADAM9 ADC), IGROV1 [1]: 8 fold
- Fold-specificity (IC50 control ADC/IC50 anti-ADAM9 ADC), KATO III [1]: 11 fold
- Fold-specificity (IC50 control ADC/IC50 anti-ADAM9 ADC), NCI-H1703 [1]: 132 fold
- EC50 [2]: 4.9 nM
- cyno/human (ratio of EC50) [3]: 3
- EC50 [4]: 1.55 nM
B1: hMAB-A(2I.2)-sSPDB-DM4 (antibody, human IgG1, kappa)
heavy: not shown
light: DIVMTQSPDSLAVSLGERATISCKASQSVDYSGDSYMNWYQQKPGQPPKLLIYAASDLESGIPARFSGSGSGTDFTLTISSLEPEDFATYYCQQSHEDPFTFGQGTKLEIKRTVAAPSVFIFPPSDEQLKSGTASVVCLLNNFYPREAKVQWKVDNALQSGNSQESVTEQDSKDSTYSLSSTLTLSKADYEKHKVYACEVTHQGLSSPVTKSFNRGEC
modifications: lysine-linked DM4, sites not given; DM4 linked through sulfo-SPDB to lysine residues of the antibody, sites not given; average 3.5 mol DM4/mol antibody
- In Vitro Cytotoxicity (IC50 nM), A498 [1]: 0.108 nM
- In Vitro Cytotoxicity (IC50 nM), DLD-1 [1]: 0.386 nM
- In Vitro Cytotoxicity (IC50 nM), DU145 [1]: 0.439 nM
- In Vitro Cytotoxicity (IC50 nM), HPAF2 [1]: 0.422 nM
- In Vitro Cytotoxicity (IC50 nM), HS578T [1]: 0.094 nM
- In Vitro Cytotoxicity (IC50 nM), IGROV1 [1]: 1.41 nM
- In Vitro Cytotoxicity (IC50 nM), KATO III [1]: 0.48 nM
- In Vitro Cytotoxicity (IC50 nM), NCI-H1703 [1]: 0.028 nM

- Kd [5]: 1.4 nM
- koff [5]: 0.00081 s⁻¹
- kon [5]: 590000 M⁻¹ s⁻¹
- EC50 [2]: 3.8 nM
- cyno/human (ratio of EC50) [3]: 3
- EC50 [4]: 1.22 nM
B2: hMAB-A (2C.2) (antibody, human IgG1, kappa, V domains shown)
VH: EVQLVESGGGLVKPGGSLRLSCAASGFTFSSYWMHWVRQAPGKGLEWVGEIIPIFGHTNYNEKFKSRFTISLDNSKNTLYLQMGSLRAEDTAVYYCARGGYYYYPRFGWLDYWGQGTTVTVSS
VL: DIVMTQSPDSLAVSLGERATISCKASQSVDYSGDSYMNWYQQKPGQPPKLLIYAASDLESGIPARFSGSGSGTDFTLTISSLEPEDFATYYCQQSHEDPFTFGQGTKLEIKR
notes: IgG1 kappa; also called MAB-A VH(2C); MAB-A VH(2C.2)

- Kd [6]: 1.3 nM
B3: hMAB-A (2.3) (antibody, V domains shown)
VH: EVQLVESGGGLVKPGGSLRLSCAASGFTFSSYWMHWVRQAPGKGLEWVGEIIPIFGHTNYNEKFKSRFTISLDNSKNTLYLQMGSLRAEDTAVYYCARGGYYYYGSRDYFDYWGQGTTVTVSS
VL: DIVMTQSPDSLAVSLGERATISCRASQSVDYSGDSYMNWYQQKPGQPPKLLIYAASDLESGIPARFSGSGSGTDFTLTISSLEPEDFATYYCQQSHEDPFTFGQGTKLEIK
notes: also called hMAB-A VH(2)/hMAB-A VL(3)

- Kd [6]: 2 nM
B4: hMAB-A (4.4) (antibody, V domains shown)
VH: EVQLVESGGGLVKPGGSLRLSCAASGFTFSSYWIHWVRQAPGKGLEWVGEIIPIFGHTNYNERFQGRFTISLDNSKNTLYLQMGSLRAEDTAVYYCARGGYYYYGSRDYFDYWGQGTTVTVSS
VL: DIVMTQSPDSLAVSLGERATISCRASQSVDYSGDSYLNWYQQKPGQPPKLLIYAASDLESGIPARFSGSGSGTDFTLTISSLEPEDFATYYCQQSYSTPFTFGQGTKLEIK
notes: also called hMAB-A VH(4)/hMAB-A VL(4)

- Kd [6]: 3.5 nM
B5: hMAB-A (1.1) (antibody, V domains shown)
VH: EVQLVESGGGLVKPGGSLRLSCAASGFTFSSYWMHWVRQAPGKGLEWVGEIIPINGHTNYNEKFKSRFTISLDNSKNTLYLQMGSLRAEDTAVYYCARGGYYYYGSRDYFDYWGQGTTVTVSS
VL: DIVMTQSPDSLAVSLGERATISCKASQSVDYDGDSYMNWYQQKPGQPPKLLIYAASDLESGIPARFSGSGSGTDFTLTISSLEPEDFATYYCQQSHEDPFTFGQGTKLEIK
notes: also called hMAB-A VH(1)/hMAB-A VL(1)

- EC50 (read off the curve) [7]: ~9 ng/mL
B6: hMAB-A (2I.2)(AA) (antibody, human IgG1, kappa, L234A L235A)
heavy: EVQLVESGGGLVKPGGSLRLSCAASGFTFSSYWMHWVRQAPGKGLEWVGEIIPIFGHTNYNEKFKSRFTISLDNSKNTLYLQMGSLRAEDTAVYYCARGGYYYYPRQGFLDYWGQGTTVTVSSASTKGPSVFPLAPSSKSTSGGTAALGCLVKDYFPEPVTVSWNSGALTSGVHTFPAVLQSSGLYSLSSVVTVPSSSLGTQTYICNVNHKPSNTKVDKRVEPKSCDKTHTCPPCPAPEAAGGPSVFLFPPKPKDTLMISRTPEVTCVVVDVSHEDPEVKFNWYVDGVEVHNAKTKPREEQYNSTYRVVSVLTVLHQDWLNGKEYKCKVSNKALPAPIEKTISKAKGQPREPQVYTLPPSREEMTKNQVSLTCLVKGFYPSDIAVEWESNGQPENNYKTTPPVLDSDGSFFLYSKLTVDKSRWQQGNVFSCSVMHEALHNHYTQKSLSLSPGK
light: DIVMTQSPDSLAVSLGERATISCKASQSVDYSGDSYMNWYQQKPGQPPKLLIYAASDLESGIPARFSGSGSGTDFTLTISSLEPEDFATYYCQQSHEDPFTFGQGTKLEIKRTVAAPSVFIFPPSDEQLKSGTASVVCLLNNFYPREAKVQWKVDNALQSGNSQESVTEQDSKDSTYSLSSTLTLSKADYEKHKVYACEVTHQGLSSPVTKSFNRGEC
notes: Last residue X is lysine or absent; also called L234A/L235A Fc variant of hMAB-A (2I.2)

- Kd [6]: 1.4 nM
B7: hMAB-A (3.3) (antibody, V domains shown)
VH: EVQLVESGGGLVKPGGSLRLSCAASGFTFSSYWMHWVRQAPGKGLEWVGEIIPIFGHTNYNERFQGRFTISLDNSKNTLYLQMGSLRAEDTAVYYCARGGYYYYGSRDYFDYWGQGTTVTVSS
VL: DIVMTQSPDSLAVSLGERATISCRASQSVDYSGDSYMNWYQQKPGQPPKLLIYAASDLESGIPARFSGSGSGTDFTLTISSLEPEDFATYYCQQSHEDPFTFGQGTKLEIK
notes: also called hMAB-A VH(3)/hMAB-A VL(3)

- Fold-specificity (IC50 control ADC/IC50 anti-ADAM9 ADC), A498 [1]: > 1000 fold
- Fold-specificity (IC50 control ADC/IC50 anti-ADAM9 ADC), DLD-1 [1]: > 1000 fold
- Fold-specificity (IC50 control ADC/IC50 anti-ADAM9 ADC), DU145 [1]: > 1000 fold
- Fold-specificity (IC50 control ADC/IC50 anti-ADAM9 ADC), HPAF2 [1]: > 1000 fold
- Fold-specificity (IC50 control ADC/IC50 anti-ADAM9 ADC), HS578T [1]: 646 fold
- Fold-specificity (IC50 control ADC/IC50 anti-ADAM9 ADC), IGROV1 [1]: > 1000 fold
- Fold-specificity (IC50 control ADC/IC50 anti-ADAM9 ADC), KATO III [1]: > 1000 fold
- Fold-specificity (IC50 control ADC/IC50 anti-ADAM9 ADC), NCI-H1703 [1]: > 1000 fold
- EC50 [2]: 6.2 nM
- cyno/human (ratio of EC50) [3]: 2
- EC50 [4]: 2.49 nM
B8: hMAB-A(2I.2)-S442C-DGN549 (antibody)
heavy: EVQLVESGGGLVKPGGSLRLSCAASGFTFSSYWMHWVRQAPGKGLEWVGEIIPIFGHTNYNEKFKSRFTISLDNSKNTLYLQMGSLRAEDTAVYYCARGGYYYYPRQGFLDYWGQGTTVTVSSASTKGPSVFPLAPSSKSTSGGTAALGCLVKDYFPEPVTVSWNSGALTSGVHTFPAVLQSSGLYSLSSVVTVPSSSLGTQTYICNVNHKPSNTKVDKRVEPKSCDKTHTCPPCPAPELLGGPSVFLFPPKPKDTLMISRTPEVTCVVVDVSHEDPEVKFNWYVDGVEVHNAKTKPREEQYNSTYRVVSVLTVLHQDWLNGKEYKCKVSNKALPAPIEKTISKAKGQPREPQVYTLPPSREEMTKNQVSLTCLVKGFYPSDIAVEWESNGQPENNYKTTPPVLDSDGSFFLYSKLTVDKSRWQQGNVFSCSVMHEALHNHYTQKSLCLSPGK
light: DIVMTQSPDSLAVSLGERATISCKASQSVDYSGDSYMNWYQQKPGQPPKLLIYAASDLESGIPARFSGSGSGTDFTLTISSLEPEDFATYYCQQSHEDPFTFGQGTKLEIKRTVAAPSVFIFPPSDEQLKSGTASVVCLLNNFYPREAKVQWKVDNALQSGNSQESVTEQDSKDSTYSLSSTLTLSKADYEKHKVYACEVTHQGLSSPVTKSFNRGEC
modifications: DGN549-C (compound D5) on the engineered Cys S442C (EU index; 6th to the last residue of SEQ ID NO 142 when X is lysine); average 1.9 mol DGN549/mol antibody
notes: also called huMAB-A(2I.2)-S442C-DGN549
- In Vitro Cytotoxicity (IC50 nM), A498 [1]: 0.004 nM
- In Vitro Cytotoxicity (IC50 nM), DLD-1 [1]: 0.045 nM
- In Vitro Cytotoxicity (IC50 nM), DU145 [1]: 0.004 nM
- In Vitro Cytotoxicity (IC50 nM), HPAF2 [1]: 0.115 nM
- In Vitro Cytotoxicity (IC50 nM), HS578T [1]: 0.017 nM
- In Vitro Cytotoxicity (IC50 nM), IGROV1 [1]: 0.003 nM
- In Vitro Cytotoxicity (IC50 nM), KATO III [1]: 0.065 nM
- In Vitro Cytotoxicity (IC50 nM), NCI-H1703 [1]: 0.004 nM

- Kd [6]: 3.6 nM
- EC50 [2]: 112 nM
- cyno/human (ratio of EC50) [3]: 273
- EC50 [4]: 0.41 nM
B9: chMAB-A (antibody, V domains shown)
VH: QVQLQQPGAELVKPGASVKLSCKASGYTFTSYWMHWVKQRPGQGLEWIGEIIPINGHTNYNEKFKSKATLTLDKSSSTAYMQLSSLASEDSAVYYCARGGYYYYGSRDYFDYWGQGTTLTVSS
VL: DIVLTQSPASLAVSLGQRATISCKASQSVDYDGDSYMNWYQQIPGQPPKLLIYAASDLESGIPARFSGSGSGTDFTLNIHPVEEEDAATYYCQQSHEDPFTFGGGTKLEIK
notes: also called chimeric version of MAB-A; chimeric chMAB-A
